# B1: Forkhead box protein P3 (Homo sapiens), Q9BZS1 (parent)
# chain: MPNPRPGKPSAPSLALGPSPGASPSWRAAPKASDLLGARGPGGTFQGRDLRGGAHASSSSLNPMPPSQLQLPTLPLVMVAPSGARLGPLPHLQALLQDRPHFMHQLSTVDAHARTPVLQVHPLESPAMISLTPPTTATGVFSLKARPGLPPGINVASLEWVSREPALLCTFPNPSAPRKDSTLSAVPQSSYPLLANGVCKWPGCEKVFEEPEDFLKHCQADHLLDEKGRAQCLLQREMVQSLEQQLVLEKEKLSAMQAHLAGKMALTKASSVASSDKGSCCIVAAGSQGPVVPAWSGPREAPDSLFAVRRHLWGSHGNSTFPEFLHNMDYFKFHNMRPPFTYATLIRWAILEAPEKQRTLNEIYHWFTRMFAFFRNHPATWKNAIRHNLSLHKCFVRVESEKGAVWTVDELEFRKKRSQRPSRCSNPTPGP
# B2: Fructose-1,6-bisphosphatase 1 (Homo sapiens), P09467 (parent)
# chain: MADQAPFDTDVNTLTRFVMEEGRKARGTGELTQLLNSLCTAVKAISSAVRKAGIAHLYGIAGSTNVTGDQVKKLDVLSNDLVMNMLKSSFATCVLVSEEDKHAIIVEPEKRGKYVVCFDPLDGSSNIDCLVSVGTIFGIYRKKSTDEPSEKDALQPGRNLVAAGYALYGSATMLVLAMDCGVNCFMLDPAIGEFILVDKDVKIKKKGKIYSLNEGYARDFDPAVTEYIQRKKFPPDNSAPYGARYVGSMVADVHRTLVYGGIFLYPANKKSPNGKLRLLYECNPMAYVMEKAGGMATTGKEAVLDVIPTDIHQRAPVILGSPDDVLEFLKVYEKHSAQ
# partner: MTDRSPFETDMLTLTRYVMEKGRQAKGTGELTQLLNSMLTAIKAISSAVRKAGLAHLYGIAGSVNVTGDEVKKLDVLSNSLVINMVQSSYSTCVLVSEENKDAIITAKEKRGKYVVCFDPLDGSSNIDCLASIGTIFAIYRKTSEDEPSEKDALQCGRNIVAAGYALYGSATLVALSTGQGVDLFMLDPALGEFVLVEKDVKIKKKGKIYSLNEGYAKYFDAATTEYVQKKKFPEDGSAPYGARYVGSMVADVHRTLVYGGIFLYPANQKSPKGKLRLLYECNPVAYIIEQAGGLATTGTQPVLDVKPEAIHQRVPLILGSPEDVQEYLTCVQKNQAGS
# B3: Lipopolysaccharide-induced tumor necrosis factor-alpha factor (Homo sapiens), Q99732 (parent)
# chain: MSVPGPYQAATGPSSAPSAPPSYEETVAVNSYYPTPPAPMPGPTTGLVTGPDGKGMNPPSYYTQPAPIPNNNPITVQTVYVQHPITFLDRPIQMCCPSCNKMIVSQLSYNAGALTWLSCGSLCLLGCIAGCCFIPFCVDALQDVDHYCPNCRALLGTYKRL
# partner: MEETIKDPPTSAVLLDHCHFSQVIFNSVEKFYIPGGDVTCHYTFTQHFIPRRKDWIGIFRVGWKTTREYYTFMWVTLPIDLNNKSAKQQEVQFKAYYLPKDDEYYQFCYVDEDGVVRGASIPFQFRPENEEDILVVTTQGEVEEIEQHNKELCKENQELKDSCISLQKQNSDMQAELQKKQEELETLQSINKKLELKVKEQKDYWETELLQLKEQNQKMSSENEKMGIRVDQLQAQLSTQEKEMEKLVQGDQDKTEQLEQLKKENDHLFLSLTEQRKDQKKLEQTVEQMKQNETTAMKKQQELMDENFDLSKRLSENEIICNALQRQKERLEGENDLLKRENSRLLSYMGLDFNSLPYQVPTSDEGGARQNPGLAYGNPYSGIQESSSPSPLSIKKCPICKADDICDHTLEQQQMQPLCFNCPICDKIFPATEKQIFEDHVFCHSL
# B4: Keratin, type II cytoskeletal 6A (Homo sapiens), P02538 (parent)
# chain: MASTSTTIRSHSSSRRGFSANSARLPGVSRSGFSSVSVSRSRGSGGLGGACGGAGFGSRSLYGLGGSKRISIGGGSCAISGGYGSRAGGSYGFGGAGSGFGFGGGAGIGFGLGGGAGLAGGFGGPGFPVCPPGGIQEVTVNQSLLTPLNLQIDPTIQRVRAEEREQIKTLNNKFASFIDKVRFLEQQNKVLETKWTLLQEQGTKTVRQNLEPLFEQYINNLRRQLDSIVGERGRLDSELRGMQDLVEDFKNKYEDEINKRTAAENEFVTLKKDVDAAYMNKVELQAKADTLTDEINFLRALYDAELSQMQTHISDTSVVLSMDNNRNLDLDSIIAEVKAQYEEIAQRSRAEAESWYQTKYEELQVTAGRHGDDLRNTKQEIAEINRMIQRLRSEIDHVKKQCANLQAAIADAEQRGEMALKDAKNKLEGLEDALQKAKQDLARLLKEYQELMNVKLALDVEIATYRKLLEGEECRLNGEGVGQVNISVVQSTVSSGYGGASGVGSGLGLGGGSSYSYGSGLGVGGGFSSSSGRAIGGGLSSVGGGSSTIKYTTTSSSSRKSYKH
# partner: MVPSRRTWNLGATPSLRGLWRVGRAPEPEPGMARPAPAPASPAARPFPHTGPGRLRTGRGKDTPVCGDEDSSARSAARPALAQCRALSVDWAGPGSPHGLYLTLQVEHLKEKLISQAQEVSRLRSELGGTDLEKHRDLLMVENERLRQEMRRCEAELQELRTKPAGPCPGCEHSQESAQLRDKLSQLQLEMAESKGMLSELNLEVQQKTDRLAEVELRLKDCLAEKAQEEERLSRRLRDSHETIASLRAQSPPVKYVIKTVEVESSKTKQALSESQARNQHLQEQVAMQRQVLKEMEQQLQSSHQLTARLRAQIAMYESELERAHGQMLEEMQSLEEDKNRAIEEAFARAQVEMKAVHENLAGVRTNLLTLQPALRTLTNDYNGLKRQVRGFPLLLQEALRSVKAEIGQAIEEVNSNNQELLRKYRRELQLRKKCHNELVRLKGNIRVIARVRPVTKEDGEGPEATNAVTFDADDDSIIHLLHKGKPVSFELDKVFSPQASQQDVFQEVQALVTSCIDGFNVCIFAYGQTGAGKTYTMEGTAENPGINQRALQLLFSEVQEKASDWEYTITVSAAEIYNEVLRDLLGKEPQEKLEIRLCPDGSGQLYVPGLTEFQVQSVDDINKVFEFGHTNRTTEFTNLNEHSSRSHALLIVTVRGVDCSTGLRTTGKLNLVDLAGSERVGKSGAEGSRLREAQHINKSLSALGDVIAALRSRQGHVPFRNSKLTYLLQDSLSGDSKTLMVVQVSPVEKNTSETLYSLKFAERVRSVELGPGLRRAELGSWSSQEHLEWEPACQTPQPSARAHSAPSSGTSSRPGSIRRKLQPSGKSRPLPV
# B5: EF-hand domain-containing protein 1 (Homo sapiens), Q5JVL4 (parent)
# chain: MVSNPVHGLPFLPGTSFKDSTKTAFHRSQTLSYRNGYAIVRRPTVGIGGDRLQFNQLSQAELDELASKAPVLTYGQPKQAPPADFIPAHVAFDKKVLKFDAYFQEDVPMSTEEQYRIRQVNIYYYLEDDSMSVIEPVVENSGILQGKLIKRQRLAKNDRGDHYHWKDLNRGINITIYGKTFRVVDCDQFTQVFLESQGIELNPPEKMALDPYTELRKQPLRKYVTPSDFDQLKQFLTFDKQVLRFYAIWDDTDSMYGECRTYIIHYYLMDDTVEIREVHERNDGRDPFPLLMNRQRVPKVLVENAKNFPQCVLEISDQEVLEWYTAKDFIVGKSLTILGRTFFIYDCDPFTRRYYKEKFGITDLPRIDVSKREPPPVKQELPPYNGFGLVEDSAQNCFALIPKAPKKDVIKMLVNDNKVLRYLAVLESPIPEDKDRRFVFSYFLATDMISIFEPPVRNSGIIGGKYLGRTKVVKPYSTVDNPVYYGPSDFFIGAVIEVFGHRFIILDTDEYVLKYMESNAAQYSPEALASIQNHVRKREAPAPEAESKQTEKDPGVQELEALIDTIQKQLKDHSCKDNIREAFQIYDKEASGYVDRDMFFKICESLNVPVDDSLVKELIRMCSHGEGKINYYNFVRAFSN
# B6: Zinc finger protein 41 (Homo sapiens), P51814 (parent)
# chain: MAANGDSPPWSPALAAEGRGSSCEVRRERTPEARIHSVKRYPDLSPGPKGRSSADHAALNSIVSLQASVSFEDVTVDFSKEEWQHLDPAQRRLYWDVTLENYSHLLSVGYQIPKSEAAFKLEQGEGPWMLEGEAPHQSCSGEAIGKMQQQGIPGGIFFHCERFDQPIGEDSLCSILEELWQDNDQLEQRQENQNNLLSHVKVLIKERGYEHKNIEKIIHVTTKLVPSIKRLHNCDTILKHTLNSHNHNRNSATKNLGKIFGNGNNFPHSPSSTKNENAKTGANSCEHDHYEKHLSHKQAPTHHQKIHPEEKLYVCTECVMGFTQKSHLFEHQRIHAGEKSRECDKSNKVFPQKPQVDVHPSVYTGEKPYLCTQCGKVFTLKSNLITHQKIHTGQKPYKCSECGKAFFQRSDLFRHLRIHTGEKPYECSECGKGFSQNSDLSIHQKTHTGEKHYECNECGKAFTRKSALRMHQRIHTGEKPYVCADCGKAFIQKSHFNTHQRIHTGEKPYECSDCGKSFTKKSQLHVHQRIHTGEKPYICTECGKVFTHRTNLTTHQKTHTGEKPYMCAECGKAFTDQSNLIKHQKTHTGEKPYKCNGCGKAFIWKSRLKIHQKSHIGERHYECKDCGKAFIQKSTLSVHQRIHTGEKPYVCPECGKAFIQKSHFIAHHRIHTGEKPYECSDCGKCFTKKSQLRVHQKIHTGEKPNICAECGKAFTDRSNLITHQKIHTREKPYECGDCGKTFTWKSRLNIHQKSHTGERHYECSKCGKAFIQKATLSMHQIIHTGKKPYACTECQKAFTDRSNLIKHQKMHSGEKRYKASD
# Variants of: B1
# Details: with pr20c_human PRR20C
row,effect of a mutation on the interaction,Variant
1,disrupting interaction,Q70H

# Variants of: B1
# Details: with rbpms_human RBPMS
row,effect of a mutation on the interaction,Variant
1,disrupting interaction,Q70H

# Variants of: B2
# Details: with FBP2, O00757
row,effect of a mutation on the interaction,Variant
1,disrupting interaction,F194S

# Variants of: B2
# Details: with FBP2, O00757
# Remark: another data set of the same source
row,effect of a mutation on the interaction,Variant
1,disrupting interaction,G260R

# Variants of: B3
# Details: with caco2_human CALCOCO2, Q13137
row,effect of a mutation on the interaction,Variant
1,disrupting interaction,A111G

# Variants of: B3
# Details: with caco2_human CALCOCO2, Q13137
# Remark: another data set of the same source
row,effect of a mutation on the interaction,Variant
1,disrupting interaction,G112S

# Variants of: B4
# Details: with kifc3_human KIFC3, Q9BVG8
row,effect of a mutation on the interaction,Variant
1,disrupting interaction,I462S

# Variants of: B4
# Details: with kifc3_human KIFC3, Q9BVG8
# Remark: another data set of the same source
row,effect of a mutation on the interaction,Variant
1,disrupting interaction,A463P

# Variants of: B4
# Details: with kifc3_human KIFC3, Q9BVG8
# Remark: another data set of the same source
row,effect of a mutation on the interaction,Variant
1,disrupting interaction,N171K

# Variants of: B5
# Details: with itf2_human TCF4, P15884
# Chain of itf2_human TCF4, P15884 (P15884 whole entry): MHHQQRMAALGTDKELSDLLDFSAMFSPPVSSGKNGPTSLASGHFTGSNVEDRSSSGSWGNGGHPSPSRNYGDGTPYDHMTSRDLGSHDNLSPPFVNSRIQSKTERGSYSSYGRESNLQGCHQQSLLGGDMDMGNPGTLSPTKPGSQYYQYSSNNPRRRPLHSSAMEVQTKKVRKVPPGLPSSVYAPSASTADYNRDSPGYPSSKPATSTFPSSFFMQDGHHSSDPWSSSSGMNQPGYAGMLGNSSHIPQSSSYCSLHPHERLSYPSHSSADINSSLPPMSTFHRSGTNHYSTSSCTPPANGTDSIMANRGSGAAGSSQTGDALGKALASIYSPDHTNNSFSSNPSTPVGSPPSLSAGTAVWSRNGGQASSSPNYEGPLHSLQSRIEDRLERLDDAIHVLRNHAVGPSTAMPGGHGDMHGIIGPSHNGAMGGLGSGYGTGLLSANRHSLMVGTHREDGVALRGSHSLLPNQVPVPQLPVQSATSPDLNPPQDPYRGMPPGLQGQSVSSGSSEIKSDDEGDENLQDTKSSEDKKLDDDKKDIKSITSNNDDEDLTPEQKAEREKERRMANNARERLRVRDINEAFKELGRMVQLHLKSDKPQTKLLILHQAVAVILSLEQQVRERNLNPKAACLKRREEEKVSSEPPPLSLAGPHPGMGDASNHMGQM
row,effect of a mutation on the interaction,Variant
1,disrupting interaction,P77T

# Variants of: B5
# Details: with ikzf3_human IKZF3, Q9UKT9
# Chain of ikzf3_human IKZF3, Q9UKT9 (Q9UKT9 whole entry): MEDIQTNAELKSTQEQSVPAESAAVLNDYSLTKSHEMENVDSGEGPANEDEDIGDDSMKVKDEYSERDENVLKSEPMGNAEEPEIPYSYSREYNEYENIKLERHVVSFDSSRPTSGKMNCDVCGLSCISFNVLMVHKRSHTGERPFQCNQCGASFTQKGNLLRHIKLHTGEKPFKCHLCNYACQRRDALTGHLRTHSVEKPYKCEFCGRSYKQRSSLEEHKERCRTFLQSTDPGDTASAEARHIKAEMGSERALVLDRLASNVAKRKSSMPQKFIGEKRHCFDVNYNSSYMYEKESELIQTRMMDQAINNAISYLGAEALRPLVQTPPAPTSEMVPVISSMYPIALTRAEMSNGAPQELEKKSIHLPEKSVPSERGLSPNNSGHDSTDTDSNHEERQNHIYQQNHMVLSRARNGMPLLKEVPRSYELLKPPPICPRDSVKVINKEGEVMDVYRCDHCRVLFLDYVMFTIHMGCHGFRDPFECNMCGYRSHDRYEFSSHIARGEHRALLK
row,effect of a mutation on the interaction,Variant
1,disrupting interaction,P77T

# Variants of: B5
# Details: with itf2_human TCF4, P15884
# Remark: another data set of the same source
row,effect of a mutation on the interaction,Variant
1,disrupting interaction,R221H

# Variants of: B5
# Details: with ikzf3_human IKZF3, Q9UKT9
# Remark: another data set of the same source
row,effect of a mutation on the interaction,Variant
1,disrupting interaction,R221H

# Variants of: B5
# Details: with itf2_human TCF4, P15884
# Remark: another data set of the same source
row,effect of a mutation on the interaction,Variant
1,disrupting interaction,T508R

# Variants of: B5
# Details: with itf2_human TCF4, P15884
# Remark: another data set of the same source
row,effect of a mutation on the interaction,Variant
1,disrupting interaction,A394S

# Variants of: B5
# Details: with ikzf3_human IKZF3, Q9UKT9
# Remark: another data set of the same source
row,effect of a mutation on the interaction,Variant
1,disrupting interaction,A394S

# Variants of: B6
# Details: with fam9b_human FAM9B
row,effect of a mutation on the interaction,Variant
1,disrupting interaction,Q111L
